Measured values: the supplement of paper PMC9170038

Tested on: MS2 coat protein
Test: apparent KD of MS2 coat protein; designed switch direction (-1 OFF switch, 1 ON switch): -1; higher = weaker reporter binding
Procedure, shortened: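 Designed RNA switches with common flanks were transcribed on Illumina chips by stalled E. coli RNA polymerase and titrated with SNAP-549-labelled MS2 coat protein, from 0.7 or 1.5 nM doubling to 3 µM, in Tris-HCl pH 7.5 buffer with KCl, MgCl2, BSA, DTT, tRNA and Tween-20. Steps lasted 0.8–1.5 h (lowest) to 10–20 min (highest). Titrations ran without input, with 200 uM small-molecule ligand, or with an oligonucleotide input. Normalised cluster fluorescence was curve-fitted, and apparent KD is the per-design median over clusters.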

[1] = Eterna round: R95, input ligand: FMN 200 uM
[2] = Eterna round: R95, input ligand: microRNA oligo, concentration not stated
[3] = Eterna round: R95, input ligand: none
[4] = input ligand: microRNA oligo, concentration not stated

Sequence | apparent KD of MS2 coat protein [1] [nM] | apparent KD of MS2 coat protein [2] [nM] | apparent KD of MS2 coat protein [3] [nM] | apparent KD of MS2 coat protein (input ligand: FMN 200 uM) [nM] | apparent KD of MS2 coat protein (input ligand: none) [nM] | apparent KD of MS2 coat protein [4] [nM]
CGUAUCUUUCACGUGAGUAGUGGGUGCAACAGGUGGGUUACAUGAGGAUCACCCAUGUCCUCACUUGCUCGUCUUAU [Grok-var2-05] (puzzle: Sensor v3, turn-off variant 2) | 37.8 | 124 | 37.5 | – | – | –
CGUCCACAUGAGGAUCACCCAUGUGAGGAUAUCUAGCACGCAGUAGUACUGUGACAUCGGAGAAGGCGUAGGGU [Eternabot (L2) Solution 96] (Eterna round: R97, puzzle: Exclusion 1) | – | – | – | 32.2 | 21.2 | –
CGUCCGGCUUCCCUUCAAAACAUGAGGAUCACCCAUGUUUUUGUUUUUGCGAGCUUUUUGCUUUUUGCUCGUCUUGU [Even Better Attempt] (puzzle: Sensor v3, turn-off variant 1) | 20.1 | 12.5 | 19.9 | – | – | –
CGUCCUCUAGUCAGGAUAUUGUCUCGGAUACGAAACAAGAAGGGACAUGAGGAUCACCCAUGUAAUGAGGACGA [Malc #30 mod 15] (puzzle: Brourd's mod of Exclusion 4) | 20.1 | 33.1 | 33.8 | – | – | –
CGUCCUGUAGUCAGGAUAUUGUCUCGGAUACGAAACAAGAAGGGACAUGAGGAUCACCCAUGUAAUCAGGACGA [Malc #30 mod 13] (puzzle: Brourd's mod of Exclusion 4) | 19.5 | 36.5 | 36.5 | – | – | –
CGUCGAAAUGUAGGAUAUCUGCACGAUUAGUGCAGAGAAGGACAUGAGGAUCACCCAUGUAGAUCACGACGAAUUAAUUUAAUU [ENG1/5-C1] (Eterna round: R96, puzzle: Exclusion NG 1) | – | – | – | – | – | 48.4
CGUCUACCAAAACCGAACAACAUGAGGAUCACCCAUGUCACUCCGCCUUAAACCUACGGAGUAAAGUGGGCGCAAAA [Vesocegeer] (Eterna round: R96, puzzle: Sensor v2, turn-off variant) | – | – | – | 32.2 | 33.2 | 28.5
CGUCUGUAAGGAUAUGGUUGCAUCAACAUGAGGAUCACCCAUGUAACGUGGGACUAGUGAUUAGAAGGUACGAACG [EX5 #60] (Eterna round: R97, puzzle: Exclusion 5) | – | – | – | 93.8 | 118 | –
CGUCUGUAAGGAUAUGGUUGUAUCGACAUGAGGAUCACCCAUGUGACGUGGGACUAGUGAUUAGAAGGUACGAACG [EX5 #63] (Eterna round: R97, puzzle: Exclusion 5) | – | – | – | 876 | 672 | –
CGUCUGUCAGGAUAUACUUACGUAGACAUGAGGAUCACCCAUGUGACGUGGGACUGGUGAGUAGAAGGGACGAACA [EX5 #75] (Eterna round: R97, puzzle: Exclusion 5) | – | – | – | 28 | 30.6 | –
CGUGACUGAGGAUAUCUAUGAUGUCACAUGAGGAUCACCCAUGUCCAGCGAAAGCUGGAGGGAGAAGGCAGUCACG [Fiskers Ex 5 - 31] (puzzle: Exclusion 5) | 34.5 | 122 | 115 | – | – | –
CGUGCGUAUGUGAGGAUAUGCUGGUCCUUGGAUCGGCAGAAGGCACAUGAGGAUCACCCAUGUGGUGUCGUACA [salish99_Bmod_ex4_088] (puzzle: Brourd's mod of Exclusion 4) | – | 215 | – | – | – | –
CGUGCGUAUGUGAGGAUAUGCUGGUCCUUGGAUCGGCAGAAGGCACAUGAGGAUCACCCAUGUGGUGUCGUUCA [salish99_Bmod_ex4_091] (puzzle: Brourd's mod of Exclusion 4) | 31.3 | 108 | 173 | – | – | –
CGUGCGUAUGUGAGGAUAUGCUGGUCCUUGGCUCGGCAGAAGGCACAUGAGGAUCACCCAUGUGGUGUCGUACU [salish99_Bmod_ex4_069] (Eterna round: R96, puzzle: Brourd's mod of Exclusion 4) | – | – | – | 291 | 67.5 | 61.1
CGUGCGUAUGUGAGGAUAUGCUGGUCCUUGGCUCGGCAGAAGGCACAUGAGGAUCACCCAUGUGGUGUCGUACU [salish99_Bmod_ex4_069] (puzzle: Brourd's mod of Exclusion 4) | – | 50.2 | – | – | – | –
CGUGGACAUAACAAGCUUUACAUGAGGAUCACCCAUGUGAUCAUGCUCGUCUUAUGGUCCACGAAUUAAUUAAUUAA [Stov1/6-C1] (Eterna round: R97, puzzle: Sensor, turn-off variant 1) | – | – | – | 19.5 | 19.9 | –
CGUGUACGAGGAUAUAGAUUAGGUGACAUGAGGAUCACCCAUGUGAUCAAUCUAUUUGGUUUAGAAGGUGUACAUG [JR_Ex5_Sub052] (Eterna round: R97, puzzle: Exclusion 5) | – | – | – | 15 | 14 | –
CGUUCGCGAGGAUAUGCAUUCGAGUCCACUACGUGUCUGGGACUUGAGGAUCACCCAAGUAGAAGGCGCCUAAA [salish99_ex2_r4_652] (Eterna round: R97, puzzle: Exclusion 2) | – | – | – | 514 | 577 | –
CGUUCGCGAGGAUAUGCAUUCGAGUCCAUUACGUGUCUGGGACUUGAGGAUCACCCAAGUAGAAGGCGCCUCAC [salish99_ex2_r4_647] (Eterna round: R97, puzzle: Exclusion 2) | – | – | – | 131 | 153 | –
CGUUGGCGAGGAUAUACAUGAGGAUCACCCAUGUGAGAGAAAAAAGUGAGGAAGAAAAGUAGAAGGCGCUGACG [salish99_ex3_r3_050] (puzzle: Exclusion 3) | 350 | 101 | 34.9 | – | – | –
CGUUGGCGAGGAUAUACAUGAGGAUCACCCAUGUGAGAGAAAAAAGUGAGGAAGAAAAGUAGAAGGCGCUGACU [salish99_ex3_r3_051] (puzzle: Exclusion 3) | 101 | 31.7 | 54.3 | – | – | –
CUAAAAGUCGAGGAUAUGCACCGUUUCGCUGACGCAGAAGGCGACACAUGAGGAUCACCCAUGUCGGUACGCGA [salish99_ex6_r004_456] (Eterna round: R97, puzzle: Exclusion 6) | – | – | – | 27.7 | 23.5 | –
CUAACAUGCUGGUGAUCAUACAUGAGGAUCACCCAUGUAACAAGCUUUUUGCUCGUCUUAUAAGAUCACCAGCAUGU [Stov1/9-A4] (Eterna round: R97, puzzle: Sensor, turn-off variant 1) | – | – | – | 16.2 | 15.5 | –
